We go through 4 molecules from patent US20230136301A1, “Corticosteriod Reduction in Treatment with Anti-CD38 Antibody” (Janssen Biotech, Inc., priority 2021, published 2023).

“Also recorded” adds a separate entry of the source.

Data set [1] has as its system patients with multiple myeloma. The note with it: COLUMBA, cited from earlier work.
Data set [2] relates to patients with RRMM. The settings on record: in vivo.
Data set [3] deals with patients with RRMM. The note with it: DARA MD 1,800 mg; PAVO Part 1; median follow-up 8.3 months; cited from earlier work.
The test system of data set [4] is patients with RRMM. Briefly: PAVO Part 1: DARA MD safety and efficacy.
In data set [5] the test system is patients with RRMM. Briefly: PAVO Part 3: immunogenicity (anti-daratumumab and anti-rHuPH20 antibodies). Format: in vivo, human. As to the method: For evaluation of immunogenicity, anti-daratumumab antibodies in serum and anti-rHuPH20 antibodies in plasma were assessed pre-dose on Cycle 1 Day 1, Cycle 1 Day 15, Cycle 2 Day 22, Cycle 4 Day 1 and 4- and 8-weeks post-treatment. The presence of anti-daratumumab and/or anti-rHuPH20 antibodies was assessed for classification as neutralizing antibodies.

With “DARA IV: daratumumab 16 mg/kg given by intravenous infusion”, the “Median duration of response” value in data set [1] (follow-up 7.5 months) was “not reached”. Further, the Overall response rate in data set [1] (median follow-up 7.5 months) is recorded as 37%.
Regarding “DARA MD: mix-and-deliver formulation of daratumumab (20 mg/mL) and rHuPH20 given subcutaneously by syringe pump”, in the data set on patients with RRMM [2], the “Serious TEAEs in SOC Infections and infestations” value amounted to 17.8%; the “TEAEs in SOC Infections and infestations” value is 71.1%. Further, in the data set with patients with RRMM [3], the ORR was 42.2%. Also, in the data set with patients with RRMM [4], the “Anemia, TEAE of Grade >3” value is recorded as 15.6%; the “Serious TEAEs in SOC General disorders and administration site conditions” value amounted to 6.7%; the “TEAEs in SOC General disorders and administration site conditions” value came out at 71.1%.
Take “daratumumab: human IgG1/κ anti-CD38 monoclonal antibody; heavy chain SEQ ID NO:12, light chain SEQ ID NO:13”: in the data set with patients with RRMM [5] (daratumumab immunogenicity-evaluable n=41), the “Patients positive for anti-daratumumab antibodies” value is recorded as “no patient tested positive; also recorded: no patients evaluable for daratumumab immunogenicity were positive”.

B1: rHuPH20: recombinant hyaluronidase having the amino acid sequence of SEQ ID NO: 22 (protein, listed as Homo sapiens)
chain: LNFRAPPVIPNVPFLWAWNAPSEFCLGKFDEPLDMSLFSFIGSPRINATGQGVTIFYVDRLGYYPYIDSITGVTVNGGIPQKISLQDHLDKAKKDITFYMPVDNLGMAVIDWEEWRPTWARNWKPKDVYKNRSIELVQQQNVQLSLTEATEKAKQEFEKAGKDFLVETIKLGKLLRPNHLWGYYLFPDCYNHHYKKPGYNGSCFNVEIKRNDDLSWLWNESTALYPSIYLNTQQSPVAATLYVRNRVREAIRVSKIPDAKSPLPVFAYTRIVFTDQVLKFLSQDELVYTFGETVALGASGIVIWGTLSIMRSMKSCLLLDNYMETILNPYIINVTLAAKMCSQVLCQEQGVCIRKNWNSSDYLHLNPDNFAIQLEKGGKFTVRGKPTLEDLEQFSEKFYCSCYSTLSCKEKADVKDTDAVDVCIADGVCIDAFLKPPMETEEPQIFY
Take B1: the “Patients positive for treatment-emergent anti-rHuPH20 antibodies” value with patients with RRMM [5] (1-week taper) was 1 (9.1%) n (%); in the data set with patients with RRMM [5] (2-week taper) it was 3 (20.0%) n (%); in the data set on patients with RRMM [5] (3-week taper) it was 6 (40.0%) n (%). In addition, the “Neutralizing anti-rHuPH20 antibodies” value in the data set on patients with RRMM [5] (all cohorts) was “None of the anti-rHuPH20 antibodies were neutralizing antibodies”.
